Test results: article PMC9856709 (Cancers, 2023)
Numbered stars: 1 amine (or outer) side, 2 acyl side, 3 side chain; on linkers, the order of the positions; unused ones are H or OH. Square brackets hold non-standard residues; d marks the D form. Peptide text beside a SMILES is read from it. * marks the point of attachment. NOTA = O=C(O)CN1CCN(CC(=O)O)CCN(CC(=O)*)CC1; γGlu = O=C(O)[C@H](CCC(=O)[*:2])N[*:1]; Sta = CC(C)C[C@H](N)[C@@H](O)CC(=O)O; AEEA = NCCOCCOCC(=O)O; Aoc = NCCCCCCCC(=O)O; CO = O=C([*:1])[*:2]

Columns and labels:
[1] = Excerpt: The average animal weight was 27.4 ± 1.6 g and OLINDA/EXM 1.0 software (adult male phantom) was used to estimate the absorbed doses.
The well-established “percent kg/g method” using Equation (1) was used to upscale the uptake values in mice to be able to evaluate the dosimetry in humans. The organ weights of the reference adult male were used to calculate the organ uptake in humans and the area under the curve of exponential fits for human time–activity curves was used to calculate the residence times. (%IA/organ)human = [(%IA/g)animal × (kBqTBweight)animal × (gorgan/(kBqTBweight)human](1)

PSMA and GRPR [2] = experiment: In vitro binding specificity (blocking) in PC3-pip cells; format: cell-based, human; details: 1 h 37 °C
Method: In vitro experiments were carried out using the PSMA- and GRPR-expressing human prostate carcinoma PC3-pip cell line (obtained from Prof. Martin Pomper, The Johns Hopkins University, Baltimore, MD, USA). Cells (5–7 × 10^5 cells/vial) were seeded 24–48 h before the experiments. All experiments were performed in triplicate.
To block the targets, cells were incubated at room temperature for 15 min with an excess (750 nM/well) of PSMA-11 (to block PSMA) and/or NOTA-PEG2-RM26 (to block GRPR). […] After 1 h, cells were collected, and the radioactive content was measured using an automated gamma counter.

PC3-pip xenografts [3] = experiment: in vivo; details: non-blocked
Method: (§1) Ex vivo experiments and in vivo imaging were carried out using BALB/c nu/nu mice bearing PC3-pip xenografts. All studies were performed according to the guidelines of the Declaration of Helsinki and approved by the Ethics Committee for Animal Research in Uppsala, Sweden (5.8.18-00473/2021. Approved on 26 February 2021).
(§2) There were 4 mice in each group. At 1 and 3 h pi, mice were sacrificed after an intraperitoneal injection of a Ketalar–Rompun solution (20 μL/g body weight) consisting of Ketalar (10 mg/mL) and Rompun (1 mg/mL), followed by heart puncture.

in vivo = details: BALB/c nu/nu, mouse, iv, 40 pmol, total radioactivity
Method: as §1, §2

[4] = 37 °C, 1 h, ITLC
Method: After 1 h, samples were taken from all solutions and analysed by ITLC.

PSMA and GRPR [5] = experiment: In vivo binding specificity (blocked groups) in PC3-pip xenografted mice; set-up: species or system BALB/c nu/nu mice; details: 1 h pi
Method: as §1, §2

[6] = as above; set-up: species or system BALB/c nu/nu mice; details: BALB/c nu/nu, mouse, iv, total radioactivity, 1 h pi, 40 pmol iv, average ± SD
Method: as §1, §2

PC3-pip xenografts [7] = experiment: nanoScan PET/CT imaging of PC3-pip xenografted mice; format: in vivo, BALB/c nu/nu mice; details: 100 pmol, 8 MBq, n = 2
Method: Immediately after the PET scan, a CT scan was performed using a nanoScan SPECT/CT camera (Mediso Medical Imaging System Ltd., Budapest, Hungary) with the same bed. […] Imaging of the non-blocked (n = 2) and the PSMA/GRPR-blocked (n = 2) groups was performed at 1 and 3 h pi. Reconstruction of the PET/CT scans was conducted using Nucline nanoScan 3.04.014.0000 software.

[8] = estimated for adult male from mouse ex vivo data, percent kg/g method, OLINDA/EXM 1.0

CC(C)C[C@H](NC(=O)C[C@H](O)[C@H](CC(C)C)NC(=O)[C@H](Cc1c[nH]cn1)NC(=O)CNC(=O)[C@@H](NC(=O)[C@H](C)NC(=O)[C@H](Cc1c[nH]c2ccccc12)NC(=O)[C@H](CCC(N)=O)NC(=O)[C@@H](Cc1ccccc1)NC(=O)COCCOCCNC(=O)[C@H](CCCCNC(=O)CN1CCN(CC(=O)O)CCN(CC(=O)O)CC1)NC(=O)[C@H](Cc1ccccc1)NC(=O)CCCCCCCNC(=O)CC[C@H](NC(=O)N[C@@H](CCC(=O)O)C(=O)O)C(=O)O)C(C)C)C(N)=O [[^68Ga]Ga-BQ7812, metal not drawn] ({Glu-CO-γGlu-Aoc}-FK(NOTA)[AEEA][dF]QWAVGH[Sta]L-NH2)
Total dose per scan ([1]; after injection of 200–300 MBq, from estimated effective dose): 1.66–2.49 mSv
Absorbed doses in the remaining organs and tissues (other than kidneys, heart wall, lower large intestine wall) ([1]; estimated for adult male from mouse ex vivo data): below 0.02 mSv/MBq
Absorbed Dose, Adrenals [1, 8]: 0.0043 mGy/MBq
Absorbed Dose, Brain [1, 8]: 0.0007 mGy/MBq
Absorbed Dose, Breasts [1, 8]: 0.0030 mGy/MBq
Absorbed Dose, Gallbladder wall [1, 8]: 0.0042 mGy/MBq
Absorbed Dose, Heart wall [1, 8]: 0.0265 mGy/MBq
Absorbed Dose, Kidneys [1, 8]: 0.0660 mGy/MBq
Absorbed Dose, Liver [1, 8]: 0.0044 mGy/MBq
Absorbed Dose, Lower large intestine wall [1, 8]: 0.0250 mGy/MBq
Absorbed Dose, Lungs [1, 8]: 0.0041 mGy/MBq
Absorbed Dose, Muscle [1, 8]: 0.0024 mGy/MBq
Absorbed Dose, Osteogenic cells [1, 8]: 0.0080 mGy/MBq
Absorbed Dose, Ovaries [1, 8]: 0.0045 mGy/MBq
Absorbed Dose, Pancreas [1, 8]: 0.0186 mGy/MBq
Absorbed Dose, Red marrow [1, 8]: 0.0057 mGy/MBq
Absorbed Dose, Skin [1, 8]: 0.0026 mGy/MBq
Absorbed Dose, Small intestine wall [1, 8]: 0.0199 mGy/MBq
Absorbed Dose, Spleen [1, 8]: 0.0033 mGy/MBq
Absorbed Dose, Stomach wall [1, 8]: 0.0048 mGy/MBq
Absorbed Dose, Testes [1, 8]: 0.0030 mGy/MBq
Absorbed Dose, Thymus [1, 8]: 0.0038 mGy/MBq
Absorbed Dose, Thyroid [1, 8]: 0.0030 mGy/MBq
Absorbed Dose, Total body [1, 8]: 0.0044 mGy/MBq
Absorbed Dose, Upper large intestines LI wall [1, 8]: 0.0111 mGy/MBq
Absorbed Dose, Urinary bladder wall [1, 8]: 0.0036 mGy/MBq
Absorbed Dose, Uterus [1, 8]: 0.0042 mGy/MBq
Effective dose [1, 8]: 0.0083 mSv/MBq
Effective dose equivalent [1, 8]: 0.0124 mSv/MBq
Uptake in cells pre-saturated with both blocking agents compared to either one (PSMA and GRPR [2]; 20 nM tracer): significantly lower
Activity uptake after pre-saturation of GRPR compared to naive cells (PSMA and GRPR [2]; excess NOTA-PEG2-RM26, 20 nM tracer, triplicate, p < 0.05): significant decrease
Activity uptake after pre-saturation of PSMA compared to naive cells (PSMA and GRPR [2]; excess PSMA-11, 20 nM tracer, triplicate, p < 0.05): significant decrease
Activity uptake after pre-saturation of PSMA and GRPR compared to naive cells (PSMA and GRPR [2]; excess PSMA-11 and NOTA-PEG2-RM26, 20 nM tracer, triplicate, p < 0.05): significant decrease
Activity uptake in the kidneys at 3 h pi as % of uptake at 1 h pi (PC3-pip xenografts [3]): 26%
Activity uptake in the pancreas at 3 h pi as % of uptake at 1 h pi (PC3-pip xenografts [3]): 11%
Activity uptake in the tumour at 3 h pi as % of uptake at 1 h pi (PC3-pip xenografts [3]): 55%
tissue uptake at 1 h (in vivo; blood): 0.86 ± 0.16 %ID/g
tissue uptake at 3 h (in vivo; blood): 0.16 ± 0.02 %ID/g
tissue uptake at 1 h (in vivo; bone): 0.31 ± 0.06 %ID/g
tissue uptake at 3 h (in vivo; bone): 0.13 ± 0.03 %ID/g
tissue uptake at 1 h (in vivo; kidneys): 45.3 ± 16.6 %ID/g
tissue uptake at 1 h (in vivo; liver): 0.89 ± 0.1 %ID/g
tissue uptake at 3 h (in vivo; liver): 0.57 ± 0.03 %ID/g
tissue uptake at 1 h (in vivo; lungs): 0.86 ± 0.15 %ID/g
tissue uptake at 3 h (in vivo; lungs): 0.2 ± 0.05 %ID/g
tissue uptake at 1 h (in vivo; muscle): 0.21 ± 0.04 %ID/g
tissue uptake at 3 h (in vivo; muscle): 0.05 ± 0.01 %ID/g
tissue uptake at 1 h (in vivo; pancreas): 5.6 ± 0.7 %ID/g
tissue uptake at 3 h (in vivo; pancreas): 0.6 ± 0.16 %ID/g
tissue uptake at 1 h (in vivo; remaining organs (other than tumour, kidneys, pancreas)): ≤ 1 %ID/g
tissue uptake at 1 h (in vivo; salivary glands): 0.44 ± 0.07 %ID/g
tissue uptake at 3 h (in vivo; salivary glands): 0.14 ± 0.03 %ID/g
tissue uptake at 1 h (in vivo; small intestine): 1.33 ± 0.31 %ID/g
tissue uptake at 3 h (in vivo; small intestine): 0.2 ± 0.02 %ID/g
tissue uptake at 1 h (in vivo; spleen): 0.92 ± 0.16 %ID/g
tissue uptake at 3 h (in vivo; spleen): 0.33 ± 0.03 %ID/g
tissue uptake at 3 h (in vivo; tumour (PC3-pip xenograft)): 5.68 ± 0.62 %ID/g
tissue to tissue ratio at 3 h (in vivo; tumour (PC3-pip) / bone): 47 ± 13
tissue to tissue ratio at 3 h (in vivo; tumour (PC3-pip) / kidneys): 0.53 ± 0.07
tissue to tissue ratio at 3 h (in vivo; tumour (PC3-pip) / liver): 9.9 ± 0.8
tissue to tissue ratio at 3 h (in vivo; tumour (PC3-pip) / muscle): 116 ± 22
tissue to tissue ratio at 3 h (in vivo; tumour (PC3-pip) / pancreas): 10 ± 4
tissue to tissue ratio at 3 h (in vivo; tumour (PC3-pip) / small intestine): 28 ± 4
tissue to tissue ratio at 3 h (in vivo; tumour (PC3-pip) / spleen): 18 ± 3
tissue uptake at 1 h (in vivo; tumour (PC3-pip)): 10.4 ± 0.97 %ID/g
tissue uptake at 3 h (in vivo; tumour (PC3-pip)): 5.7 ± 0.6 %ID/g
tissue to tissue ratio at 1 h (in vivo; tumour / blood): 13 ± 3
tissue to tissue ratio at 3 h (in vivo; tumour / blood): 35 ± 4
tissue to tissue ratio at 1 h (in vivo; tumour / bone): 35 ± 8
tissue to tissue ratio at 1 h (in vivo; tumour / kidneys): 0.3 ± 0.1
tissue to tissue ratio at 1 h (in vivo; tumour / liver): 11.8 ± 1
tissue to tissue ratio at 1 h (in vivo; tumour / lungs): 12 ± 3
tissue to tissue ratio at 3 h (in vivo; tumour / lungs): 29 ± 5
tissue to tissue ratio at 1 h (in vivo; tumour / muscle): 52 ± 12
tissue to tissue ratio at 1 h (in vivo; tumour / pancreas): 1.9 ± 0.2
tissue to tissue ratio at 1 h (in vivo; tumour / salivary glands): 24 ± 3
tissue to tissue ratio at 3 h (in vivo; tumour / salivary glands): 40 ± 8
tissue to tissue ratio at 1 h (in vivo; tumour / small intestine): 8 ± 2
tissue to tissue ratio at 1 h (in vivo; tumour / spleen): 12 ± 3
Release of free gallium-68 in human serum [4]: no release of free gallium-68 was detected
Stability in human serum [4]: stable
Uptake in tumour and pancreas, GRPR-blocked group compared with non-blocked group (PSMA and GRPR [5]; co-injected NOTA-PEG2-RM26 5 nmol): statistically significantly lower
Uptake in tumour and kidneys, PSMA-blocked group compared with non-blocked group (PSMA and GRPR [5]; co-injected PSMA-11 5 nmol): statistically significantly lower
tissue uptake at 1 h ([6]; blood, GRPR blocked (co-injected NOTA-PEG2-RM26 5 nmol), read-out: Uptake (%IA/g), Blood): 0.69 ± 0.28 %ID/g
tissue uptake at 1 h ([6]; blood, PSMA blocked (co-injected PSMA-11 5 nmol), read-out: Uptake (%IA/g), Blood): 0.8 ± 0.24 %ID/g
tissue uptake at 1 h ([6]; kidneys, GRPR blocked (co-injected NOTA-PEG2-RM26 5 nmol), read-out: Uptake (%IA/g), Kidneys): 34.5 ± 8.74 %ID/g
tissue uptake at 1 h ([6]; kidneys, PSMA blocked (co-injected PSMA-11 5 nmol), read-out: Uptake (%IA/g), Kidneys): 13.8 ± 0.45 %ID/g
tissue uptake at 1 h ([6]; pancreas, GRPR blocked (co-injected NOTA-PEG2-RM26 5 nmol), read-out: Uptake (%IA/g), Pancreas): 0.76 ± 0.14 %ID/g
tissue uptake at 1 h ([6]; pancreas, PSMA blocked (co-injected PSMA-11 5 nmol), read-out: Uptake (%IA/g), Pancreas): 6.33 ± 1.86 %ID/g
tissue uptake at 1 h ([6]; salivary glands, GRPR blocked (co-injected NOTA-PEG2-RM26 5 nmol), read-out: Uptake (%IA/g), Salivary Glands): 0.29 ± 0.07 %ID/g
tissue uptake at 1 h ([6]; salivary glands, PSMA blocked (co-injected PSMA-11 5 nmol), read-out: Uptake (%IA/g), Salivary Glands): 0.38 ± 0.12 %ID/g
tissue uptake at 1 h ([6]; tumour (PC3-pip xenograft), GRPR blocked (co-injected NOTA-PEG2-RM26 5 nmol), read-out: Uptake (%IA/g), Tumour (PC3-pip)): 5.73 ± 0.72 %ID/g
tissue uptake at 1 h ([6]; tumour (PC3-pip xenograft), PSMA blocked (co-injected PSMA-11 5 nmol), read-out: Uptake (%IA/g), Tumour (PC3-pip)): 8.26 ± 1.03 %ID/g
PET/CT visualisation, non-blocked (PC3-pip xenografts [7]; 1 and 3 h pi): elevated activity uptake could be visualised in the kidneys and the tumour
PET/CT visualisation of tumour upon blocking of PSMA and GRPR (PC3-pip xenografts [7]; co-injected NOTA-PEG2-RM26 and PSMA-11 (5 nmol each)): the tumour is no longer visualised
